Laboratory results from PMC3326312.

B1: Cons_up scaffold, 20-mer RNA (mixed)
DNA 1: CAGTGAATTCAGGATACTTAGTGCTATAATGAGCGGATCGCATGTTCACACAGGAAACAGCTGATTGCCC
DNA 2: GGGCAATCAGCTGTTTCCTGTGTGAACATGCGATCCGCTCATTATAGCACTAAGTATCCTGAATTCACTG
RNA: AUCACGAUAAAUGAGCGGAU
B2: Cons scaffold, 20-mer RNA (mixed)
DNA 1: AGGATACTTAGTGCTATAATGAGCGGATCGCATGTTCACACAGGAAACAGCTGATTGCCC
DNA 2: GGGCAATCAGCTGTTTCCTGTGTGAACATGCGATCCGCTCATTATAGCACTAAGTATCCT
RNA: AUCACGAUAAAUGAGCGGAU

Assays:
[1] = target: T1, core RNA polymerase (wild type);sigma70 (Escherichia coli;Escherichia coli, UniProt P0A7Z4;P0A8V2;P0A8T7;P00579 1-329;1-1342;1-1407;1-613, |); test: ExoIII footprinting
T1 sequence (P0A7Z4 whole entry, chain 1 of 3): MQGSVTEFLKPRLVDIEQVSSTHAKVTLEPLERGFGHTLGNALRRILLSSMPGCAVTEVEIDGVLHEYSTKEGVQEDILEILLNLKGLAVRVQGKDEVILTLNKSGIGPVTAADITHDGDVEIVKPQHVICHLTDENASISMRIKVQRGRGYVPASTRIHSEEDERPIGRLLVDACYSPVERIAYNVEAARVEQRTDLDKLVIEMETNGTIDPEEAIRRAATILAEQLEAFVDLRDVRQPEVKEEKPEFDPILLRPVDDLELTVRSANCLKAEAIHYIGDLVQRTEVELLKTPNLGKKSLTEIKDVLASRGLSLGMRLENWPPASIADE
T1 sequence (P0A8V2 whole entry, chain 2 of 3): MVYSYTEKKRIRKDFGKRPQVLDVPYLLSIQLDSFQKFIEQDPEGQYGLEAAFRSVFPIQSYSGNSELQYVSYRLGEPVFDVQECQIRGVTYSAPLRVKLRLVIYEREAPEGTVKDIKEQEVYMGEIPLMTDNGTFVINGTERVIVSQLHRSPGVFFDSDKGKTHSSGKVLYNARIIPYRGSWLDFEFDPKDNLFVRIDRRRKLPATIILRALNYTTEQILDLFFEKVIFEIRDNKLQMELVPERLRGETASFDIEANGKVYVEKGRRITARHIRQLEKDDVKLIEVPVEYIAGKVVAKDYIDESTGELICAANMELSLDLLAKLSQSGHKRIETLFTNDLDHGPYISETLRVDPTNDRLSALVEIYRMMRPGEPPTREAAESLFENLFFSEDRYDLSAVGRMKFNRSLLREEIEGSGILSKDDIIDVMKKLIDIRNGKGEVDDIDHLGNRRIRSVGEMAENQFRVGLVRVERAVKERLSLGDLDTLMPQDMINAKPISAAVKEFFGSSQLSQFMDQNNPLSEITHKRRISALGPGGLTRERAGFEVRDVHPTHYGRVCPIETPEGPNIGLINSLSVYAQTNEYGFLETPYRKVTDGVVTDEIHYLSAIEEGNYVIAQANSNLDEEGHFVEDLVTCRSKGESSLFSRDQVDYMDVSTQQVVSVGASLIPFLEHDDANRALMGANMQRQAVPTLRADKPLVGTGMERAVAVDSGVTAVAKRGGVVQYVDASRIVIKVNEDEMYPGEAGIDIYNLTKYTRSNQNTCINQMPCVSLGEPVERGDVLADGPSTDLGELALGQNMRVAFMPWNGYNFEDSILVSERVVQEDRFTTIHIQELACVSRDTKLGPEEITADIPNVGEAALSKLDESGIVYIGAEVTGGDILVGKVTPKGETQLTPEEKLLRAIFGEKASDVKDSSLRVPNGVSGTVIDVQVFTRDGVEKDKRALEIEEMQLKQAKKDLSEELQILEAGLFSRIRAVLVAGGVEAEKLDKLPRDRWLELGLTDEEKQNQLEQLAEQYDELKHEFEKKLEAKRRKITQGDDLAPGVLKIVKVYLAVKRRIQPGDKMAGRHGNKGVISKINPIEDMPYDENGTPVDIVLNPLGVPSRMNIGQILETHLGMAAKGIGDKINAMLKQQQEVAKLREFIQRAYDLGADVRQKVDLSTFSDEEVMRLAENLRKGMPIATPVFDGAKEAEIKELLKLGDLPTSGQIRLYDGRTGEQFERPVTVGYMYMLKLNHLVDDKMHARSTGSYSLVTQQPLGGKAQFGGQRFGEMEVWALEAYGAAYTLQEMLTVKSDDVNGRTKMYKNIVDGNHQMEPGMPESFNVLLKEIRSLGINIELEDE
T1 sequence (P00579 whole entry, chain 4 of 3): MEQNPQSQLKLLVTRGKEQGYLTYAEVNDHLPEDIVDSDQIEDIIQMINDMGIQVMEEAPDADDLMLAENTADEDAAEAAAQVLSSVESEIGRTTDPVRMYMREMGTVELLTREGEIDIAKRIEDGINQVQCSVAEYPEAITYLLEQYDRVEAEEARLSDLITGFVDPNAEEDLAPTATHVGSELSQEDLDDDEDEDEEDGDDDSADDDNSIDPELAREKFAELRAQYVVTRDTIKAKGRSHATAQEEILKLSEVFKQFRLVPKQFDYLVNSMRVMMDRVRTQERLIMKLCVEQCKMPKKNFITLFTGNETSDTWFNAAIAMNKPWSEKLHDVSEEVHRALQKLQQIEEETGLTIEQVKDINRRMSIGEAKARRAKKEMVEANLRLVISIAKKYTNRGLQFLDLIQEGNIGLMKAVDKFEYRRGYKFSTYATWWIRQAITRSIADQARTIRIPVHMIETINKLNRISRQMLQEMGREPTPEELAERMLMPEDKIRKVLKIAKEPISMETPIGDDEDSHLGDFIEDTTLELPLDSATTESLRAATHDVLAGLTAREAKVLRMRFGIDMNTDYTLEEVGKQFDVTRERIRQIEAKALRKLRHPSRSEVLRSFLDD

[2] = target: T2, core RNA polymerase (wild type) (Escherichia coli, UniProt P0A7Z4;P0A8V2;P0A8T7 1-329;1-1342;1-1407); test: ExoIII footprinting
T2 sequence (P0A7Z4 whole entry, chain 1 of 2, the tested form may be a part): as the sequence (P0A7Z4 whole entry, chain 1 of 3) above
T2 sequence (P0A8V2 whole entry, chain 2 of 2, the tested form may be a part): as the sequence (P0A8V2 whole entry, chain 2 of 3) above

[3] = target: core RNA polymerase (wild type);sigma70 fragment 1-448 (Escherichia coli;Escherichia coli, UniProt P0A7Z4;P0A8V2;P0A8T7;P00579 1-329;1-1342;1-1407;1-448, |); test: ExoIII footprinting
[4] = target: T2, core RNA polymerase (wild type); test: KMnO4 footprinting
[5] = target: T1, core RNA polymerase (wild type);sigma70; test: KMnO4 footprinting

Binder | binding result [1] | binding result [2] | binding result [3] | binding result [4] | binding result [5]
B1 | binds | binds | binds |  | 
B2 |  |  |  | binds | binds
